# Test results: the supplement of paper PMC9112550, “Optimization of the antimicrobial peptide Bac7 by deep mutational scanning” (BMC Biology, 2022)
# Tested on: Escherichia coli TOP10
# Assay: shrunken log2 fold change of peptide-encoding DNA abundance (4.5 h post-induction vs induction); higher = less antimicrobial activity (less host growth inhibition)
# Conditions: time post-induction: 4.5 h; library: site-saturation at positions 5, 18, 19, 20
# 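Further: peptides expressed intracellularly from a pBAD plasmid library in pooled LB shake-flask culture, induced with 0.3% L-arabinose, DNA abundance read by NGS, three biological replicates, DESeq2 with apeglm shrinkage.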
row,Sequence,shrunken log2 fold change
1,RRIRFRPPRLPRPRPRPIWPPRP,0.21
2,RRIRGRPPRLPRPRPRPLMYPRP,-0.00226
3,RRIRLRPPRLPRPRPRPTQLPRP,0.221
4,RRIRGRPPRLPRPRPRPFTDPRP,0.143
5,RRIRSRPPRLPRPRPRPERPPRP,0.384
6,RRIRYRPPRLPRPRPRPSYLPRP,-1.08
7,RRIRNRPPRLPRPRPRPFNRPRP,-0.111
8,RRIRYRPPRLPRPRPRPAWPPRP,0.363
9,RRIRERPPRLPRPRPRPFVHPRP,-0.435
10,RRIRPRPPRLPRPRPRPKTIPRP,-0.0767
11,RRIRQRPPRLPRPRPRPCKKPRP,0.0212
12,RRIRCRPPRLPRPRPRPLTTPRP,0.729
13,RRIRLRPPRLPRPRPRPPFWPRP,0.308
14,RRIRQRPPRLPRPRPRPWYRPRP,-0.49
15,RRIRVRPPRLPRPRPRPSVNPRP,-0.291
16,RRIRPRPPRLPRPRPRPWLNPRP,-0.541
17,RRIRHRPPRLPRPRPRPNGHPRP,-0.0552
18,RRIRMRPPRLPRPRPRPATNPRP,0.499
19,RRIRRRPPRLPRPRPRPASAPRP,0.227
20,RRIRLRPPRLPRPRPRPQAMPRP,0.00366
21,RRIRQRPPRLPRPRPRPHPPPRP,0.667
22,RRIRMRPPRLPRPRPRPNVLPRP,0.359

row,Sequence,shrunken log2 fold change
1,RRIRDRPPRLPRPRPRPAMYPRP,-0.0257
2,RRIRDRPPRLPRPRPRPFWHPRP,-0.166
3,RRIRKRPPRLPRPRPRPNMAPRP,0.00469
4,RRIRMRPPRLPRPRPRPQYNPRP,-0.934
5,RRIRKRPPRLPRPRPRPVYKPRP,0.0665
6,RRIRERPPRLPRPRPRPHIYPRP,-0.226
7,RRIRHRPPRLPRPRPRPARPPRP,0.502
8,RRIRQRPPRLPRPRPRPARAPRP,1.22
9,RRIRQRPPRLPRPRPRPIPYPRP,-0.0122
10,RRIRERPPRLPRPRPRPLYCPRP,-0.444
11,RRIRGRPPRLPRPRPRPIGFPRP,0.061
12,RRIRVRPPRLPRPRPRPYFAPRP,-0.246
13,RRIRCRPPRLPRPRPRPWHAPRP,-0.271
14,RRIRERPPRLPRPRPRPHFLPRP,-0.458
15,RRIRTRPPRLPRPRPRPFWQPRP,0.0872
16,RRIRPRPPRLPRPRPRPEWPPRP,0.449
17,RRIRKRPPRLPRPRPRPWVTPRP,0.000269
18,RRIRDRPPRLPRPRPRPCEEPRP,-0.187
19,RRIRNRPPRLPRPRPRPRMPPRP,-0.0444
20,RRIRTRPPRLPRPRPRPQDRPRP,-0.0332
21,RRIRMRPPRLPRPRPRPWCCPRP,0.0172
22,RRIRPRPPRLPRPRPRPEHMPRP,-0.0558

row,Sequence,shrunken log2 fold change
1,RRIRYRPPRLPRPRPRPCYEPRP,-0.246
2,RRIRPRPPRLPRPRPRPEKDPRP,-0.0428
3,RRIRWRPPRLPRPRPRPIMNPRP,-0.473
4,RRIRIRPPRLPRPRPRPRKLPRP,-0.529
5,RRIRCRPPRLPRPRPRPGRDPRP,0.18
6,RRIRGRPPRLPRPRPRPETDPRP,1.34
7,RRIRYRPPRLPRPRPRPCICPRP,-0.0423
8,RRIRERPPRLPRPRPRPHPVPRP,-0.277
9,RRIRSRPPRLPRPRPRPHNRPRP,0.0124
10,RRIRWRPPRLPRPRPRPRRDPRP,0.243
11,RRIRFRPPRLPRPRPRPRLPPRP,1.13
12,RRIRARPPRLPRPRPRPHKAPRP,0.102
13,RRIRSRPPRLPRPRPRPAASPRP,-0.0449
14,RRIRQRPPRLPRPRPRPITNPRP,-0.158
15,RRIRMRPPRLPRPRPRPWRVPRP,-0.158
16,RRIRDRPPRLPRPRPRPRKPPRP,0.39
17,RRIRWRPPRLPRPRPRPRCEPRP,0.545
18,RRIRQRPPRLPRPRPRPHKFPRP,-0.279
19,RRIRMRPPRLPRPRPRPIVYPRP,0.00317
20,RRIRNRPPRLPRPRPRPPWSPRP,-0.294
21,RRIRVRPPRLPRPRPRPLEGPRP,0.138
22,RRIRPRPPRLPRPRPRPQSEPRP,-0.381

row,Sequence,shrunken log2 fold change
1,RRIRARPPRLPRPRPRPSRVPRP,2.84
2,RRIRMRPPRLPRPRPRPMWAPRP,0.392
3,RRIRWRPPRLPRPRPRPHVGPRP,0.0547
4,RRIRQRPPRLPRPRPRPEVVPRP,0.196
5,RRIRERPPRLPRPRPRPCDGPRP,0.142
6,RRIRFRPPRLPRPRPRPIQGPRP,0.0616
7,RRIRERPPRLPRPRPRPTTGPRP,-0.0235
8,RRIRTRPPRLPRPRPRPKTNPRP,-0.157
9,RRIRSRPPRLPRPRPRPPSIPRP,0.2
10,RRIRPRPPRLPRPRPRPCADPRP,0.213
11,RRIRFRPPRLPRPRPRPHAMPRP,0.203
12,RRIRWRPPRLPRPRPRPYMFPRP,-0.194
13,RRIRIRPPRLPRPRPRPKLRPRP,0.349
14,RRIRCRPPRLPRPRPRPSPPPRP,0.252
15,RRIRNRPPRLPRPRPRPIWGPRP,-0.0075
16,RRIRTRPPRLPRPRPRPHNCPRP,-0.113
17,RRIRCRPPRLPRPRPRPCMYPRP,-0.0898
18,RRIRIRPPRLPRPRPRPNGTPRP,-0.201
19,RRIRMRPPRLPRPRPRPSHTPRP,0.0597
20,RRIRVRPPRLPRPRPRPGVFPRP,0.117
21,RRIRGRPPRLPRPRPRPTCCPRP,1.2
22,RRIRCRPPRLPRPRPRPAQGPRP,0.631

row,Sequence,shrunken log2 fold change
1,RRIRDRPPRLPRPRPRPRMYPRP,-0.154
2,RRIRIRPPRLPRPRPRPFLSPRP,-0.282
3,RRIRARPPRLPRPRPRPHVDPRP,0.142
4,RRIRARPPRLPRPRPRPENGPRP,-0.0341
5,RRIRMRPPRLPRPRPRPPHMPRP,0.296
6,RRIRGRPPRLPRPRPRPELEPRP,2.14
7,RRIRRRPPRLPRPRPRPFMDPRP,-0.148
8,RRIRERPPRLPRPRPRPIWTPRP,-0.0563
9,RRIRARPPRLPRPRPRPYMIPRP,-0.494
10,RRIRWRPPRLPRPRPRPQYIPRP,-0.944
11,RRIRVRPPRLPRPRPRPEYGPRP,-0.00905
12,RRIRQRPPRLPRPRPRPYGCPRP,-0.00141
13,RRIRYRPPRLPRPRPRPDVWPRP,-0.194
14,RRIRTRPPRLPRPRPRPQCDPRP,-0.184
15,RRIRHRPPRLPRPRPRPMMKPRP,0.0118
16,RRIRPRPPRLPRPRPRPANRPRP,-0.125
17,RRIRLRPPRLPRPRPRPQIIPRP,0.0457
18,RRIRNRPPRLPRPRPRPFSNPRP,-0.214
19,RRIRDRPPRLPRPRPRPDPQPRP,0.209
20,RRIRFRPPRLPRPRPRPPHDPRP,0.336
21,RRIRWRPPRLPRPRPRPAASPRP,0.404
